Here are results for 14 substances from patent US8524664B2, “Methods of treating overproduction of cortisol using ACTH antagonist peptides” (Colorado Seminary, Which owns and Operates The Univeristy …, priority 2011, dated 2013).

The target in assay [1] is T1, MC2R (Homo sapiens, UniProt Q01718). Nature of the assay: Inhibition of ACTH(1-24)-dependent hMC2R activation by co-incubated analog: cAMP in transfected CHO cells. The format is cell-based. Further details: host or cells: CHO cells, transient transfection, pcDNA3.1. The procedure: (§1) FIG. 1. Inhibition of ACTH(1-24) by ACTH(15-24) peptide. For all experiments, Chinese Hamster Ovary (CHO) cells were transiently transfected with a human melanocortin receptor gene construct (MC2R for FIGS. 1-3) and a mouse MRAP1 gene, as described in the Examples section. Two days later, individual wells of transfected CHO cells (10^5 cells per well) were incubated with ACTH(1-24) at concentrations ranging from 10^−6 to 10^−12 M. For these experiments, each concentration of ACTH(1-24) was co-incubated with either no KKRRPVKVYP (SEQ ID NO:1) (filled circle), 10^−6 M KKRRPVKVYP (SEQ ID NO:1) (filled diamond), 10^−7 M KKRRPVKVYP (SEQ ID NO:1) (half-filled square), 10^−8 KKRRPVKVYP (SEQ ID NO:1) (circle in square), or 10^−9 M KKRRPVKVYP (SEQ ID NO:1) (open square). After a 15 minute incubation, the amount of cAMP produced in each well of CHO cells was measured. Each data point is a minimum of n=3. […] The ACTH analog ACTH(11-24) [KPVGKKRRPVKVYP; SEQ ID NO:7] at a concentration of 10^−6 M produced a 50% inhibition of ACTH(1-24) stimulation, but had no effect on ACTH(1-24) stimulation when tested at a concentration of 10^−7 M.
FIG. 2. Dose response curve for ACTH analog AT814. AT814 is a previously-described ACTH inhibitor (WO 2006/052468). For this experiment, individual wells of transfected CHO cells (as described for FIG. 1) were incubated with ACTH(1-24) at concentrations ranging from 10^−6 to 10^−12 M alone (open circle) or ACTH(1-24) and AT814 at a concentration of 10^−6 M (open square).
FIG. 3. Dose response curve for ACTH analog AT814. […] Open circles: ACTH(1-24) alone; open squares: ACTH(1-24)+AT814 (10^−7 M).
(§2) To test this hypothesis, a human MC2R gene construct was transiently co-transfected with a mouse MCR2R accessory protein 1 (MRAP1) gene into CHO cells and subsequently, cAMP production was measured.
(§3) Human hMC2R, Genbank Accession No. AY225229.1, was synthesized by GenScript with a V-5 epitope tag and inserted into a pcDNA3.1 vector. Mouse (Mus musculus) mMRAP1, Genbank Accession No. NM_029844, was also synthesized by GenScript with a FLAG epitope tag and inserted into pcDNA3.1 vectors.
(§4) The experiments were all done in transiently transfected CHO cells. The CHO cells were grown at 37° C. in a humidified 5% CO2 incubator in Kaighn's Modification of Ham's F-12 (2 mM glutamine, 1500 mg/L bicarbonate) with 10% fetal bovine serum, 5 mL pen/strep, and 1 mL normocin.
(§5) In order to functionally express hMC2R in heterologous cells, like CHO cells, the hMC2R construct must be co-transfected with a mammalian MRAP (melanocortin receptor accessory protein; Hinkle, P. M. and Sebag, J. A. (2009) Structure and function of the melanocortin 2 receptor accessory protein. Mol. Cell. Endocrinol. 300:25-31). CHO cells were transfected with 2 μg of hMC2R and mMRAP using a Cell Line Nucleofector Kit (Amaxa, Inc.) with solution T and program U-023. The cells were then plated on a white, 96-well plate a density of 1×10^5 cells per well. 48 hours after transfection, cells were stimulated with the appropriate ligands in serum-free CHO media for 15 minutes at 37° C. at concentrations ranging from 10^−5 M to 10^−10 M. After a 15 minute incubation, a direct cAMP EIA kit (Assay Designs, Ann Arbor, Mich.) was used to measure cAMP in the CHO cells.
(§6) All experimental treatments were performed in no less than triplicate, and then corrected for control values, which were obtained by using transfected cells that were left unstimulated. In each of the assays, maximal activation levels were between three to 10 times the control level. Corrected values were normalized to 100 nM ACTH activation. Average values and standard errors of the mean were graphed using KaleidaGraph software, and the […] value for each ligand was determined.
Target sequence in this assay (Q01718 whole entry): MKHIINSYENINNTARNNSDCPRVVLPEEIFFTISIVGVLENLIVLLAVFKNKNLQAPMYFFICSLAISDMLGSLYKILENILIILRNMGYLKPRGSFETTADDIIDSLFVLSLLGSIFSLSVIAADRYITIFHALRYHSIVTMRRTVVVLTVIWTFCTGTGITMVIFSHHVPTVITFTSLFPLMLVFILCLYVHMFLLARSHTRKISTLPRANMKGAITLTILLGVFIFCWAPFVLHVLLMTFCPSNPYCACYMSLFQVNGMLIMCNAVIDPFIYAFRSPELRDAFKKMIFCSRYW
Target sequence in this assay (Q9D159 whole entry partner): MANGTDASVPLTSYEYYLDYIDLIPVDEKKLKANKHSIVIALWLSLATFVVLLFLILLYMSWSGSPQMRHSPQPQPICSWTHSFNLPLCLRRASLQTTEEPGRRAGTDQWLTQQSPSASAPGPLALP

The target of assay [2] is T1, MC2R. Description: Activation of hMC2R by ACTH analogs: cAMP production in CHO cells co-transfected with hMC2R and mouse MRAP1. The format is cell-based. Further details: host or cells: CHO cells, transient transfection, pcDNA3.1. The conditions noted are these: for MC2R activation relative to full-length ACTH / MC2R activation relative to full-length ACTH: fold drop in activity: analog alone, transfected CHO cells, cAMP after 15 min. On the procedure:
as §1, §2, §3, §4, §5, §6
Target sequence in this assay (Q01718 whole entry): as the sequence (Q01718 whole entry) above
Target sequence in this assay (Q9D159 whole entry partner): as the sequence (Q9D159 whole entry partner) above
On the technique in general: cAMP levels reflect the balance of adenylyl cyclase and phosphodiesterase activity.

In assay [3] the target is T1, MC2R. The assay is described as above. The assay is classed as cell-based. Further details: host or cells: CHO cells, transient transfection, pcDNA3.1. The following applies: 10^-6 to 10^-12 M.
Target sequence in this assay (Q01718 whole entry): as the sequence (Q01718 whole entry) above
Target sequence in this assay (Q9D159 whole entry partner): as the sequence (Q9D159 whole entry partner) above
Assay [4] concerns the target T1, MC2R. The conditions noted are these: from previous studies / literature, cited from earlier work.
Target sequence in this assay (Q01718 whole entry, species assumed): as the sequence (Q01718 whole entry) above
Target sequence in this assay (Q8TCY5 whole entry partner, species assumed): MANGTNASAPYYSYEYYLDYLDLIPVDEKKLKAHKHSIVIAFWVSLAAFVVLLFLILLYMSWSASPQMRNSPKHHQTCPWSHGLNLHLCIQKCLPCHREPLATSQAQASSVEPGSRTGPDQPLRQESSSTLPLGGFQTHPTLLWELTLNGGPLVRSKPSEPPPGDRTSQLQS
The next assay addresses T2, human MC4R (Homo sapiens, UniProt P32245).
T2 construct: expressed in transfected cells; host or cells: CHO cells, pcDNA3.1
Description: Activation of human MC4R in hMC4R-transfected CHO cells (cAMP production). The assay is classed as cell-based. The following applies: analog at 10^-6 to 10^-12 M. On the procedure:
FIG. 4. Activation of human MC4R by ACTH analog AT814. Because AT814 has the HFRW (SEQ ID NO:8) motif, the hypothesis that this analog could activate the human MC4 receptor was tested. CHO cells were transfected with a human MC4R cDNA construct in a pcDNA3.1 vector.

[5] abbreviates: analog at 10^-6 M co-incubated with ACTH(1-24) 10^-6 to 10^-12 M.
The mark [6] stands for this setting: analog at 10^-7 M co-incubated with ACTH(1-24) 10^-6 to 10^-12 M.
Where [7] appears, read: analog at 10^-8 M co-incubated with ACTH(1-24).

“Also recorded” adds a separate entry of the source. Where two headings read alike, the source gives them in different places.

T2 sequence (P32245 whole entry): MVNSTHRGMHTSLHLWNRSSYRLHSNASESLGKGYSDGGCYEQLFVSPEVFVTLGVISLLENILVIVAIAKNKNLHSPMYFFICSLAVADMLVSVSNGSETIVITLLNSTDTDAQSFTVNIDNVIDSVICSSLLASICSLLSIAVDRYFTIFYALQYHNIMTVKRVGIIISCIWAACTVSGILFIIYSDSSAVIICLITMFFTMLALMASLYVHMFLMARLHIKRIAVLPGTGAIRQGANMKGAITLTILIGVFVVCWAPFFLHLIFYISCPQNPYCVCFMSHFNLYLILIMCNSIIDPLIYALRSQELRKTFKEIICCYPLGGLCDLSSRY

For “KKRRPAAAA (synthetic adrenocorticotropin hormone (ACTH) analog)”, in the assay with MC2R [1] (setting [5]), the “inhibition of ACTH(1-24) activation of hMC2R” value (“inhibition … of hMC2R” for short) was “did not block”.

As for “KKRRPVKVYP (synthetic adrenocorticotropin hormone analog ACTH(15-24) peptide, human ACTH residues 15-24, ACTH antagonist polypeptide) [ACTH antagonist polypeptide, residues 15-24 of human ACTH]”, the “MC2R activation relative to full-length ACTH” value with MC2R [2] was “No activity”. Also, the “inhibition … of hMC2R” value is given as “complete blockage” with MC2R [1] (setting [5]); “completely blocked” with MC2R [1] (analog at 10^-6 M co-incubated with ACTH(1-24) 10^-6 to 10^-12 M, listed as ACTH(15-24)); “complete blockage” in the assay with MC2R [1] (setting [6]); “completely blocked” in the assay with MC2R [1] (analog at 10^-7 M co-incubated with ACTH(1-24) 10^-6 to 10^-12 M, listed as ACTH(15-24)); “partial blockage” in the assay with MC2R [1] (setting [7]); “no effect” with MC2R [1] (analog at 10^-9 M co-incubated with ACTH(1-24)). Also, the “drop in hMC2R activation by ACTH(1-24)” value in the assay with MC2R [1] (setting [7]) is given as 34±5%. In addition, the “activation of hMC2R (cAMP production) by analog incubated alone” value with MC2R [3] is reported as “did not activate”.

Take “KPVGKKRRPVKVYP (synthetic adrenocorticotropin hormone analog ACTH(11-24) peptide, human ACTH residues 11-24) [ACTH analog ACTH(11-24), reference compound]”: in the assay with MC2R [1] (analog at 10^-6 M co-incubated with ACTH(1-24)), the “inhibition of ACTH(1-24) stimulation” value amounted to 50%. Moreover, the “inhibition … of hMC2R” value with MC2R [1] (setting [6]) was “no effect”.

Consider NAc-SYSMEHFRWGKPV-NH2 [α-MSH], for which, in the assay with MC2R [4], the “activation of MC2R (previous studies)” value is “cannot activate”.

Consider “RRPVKVYP (synthetic adrenocorticotropin hormone analog ACTH(17-24) peptide, human ACTH residues 17-24) [ACTH analog ACTH(17-24)]”, for which, in the assay with MC2R [2], the “MC2R activation relative to full-length ACTH” value was “No activity”. Further, the “inhibition … of hMC2R” value is “did not block” with MC2R [1] (setting [5]) and “no inhibitory effect” with MC2R [1] (analog at 10^-6 M co-incubated with ACTH(1-24) 10^-6 to 10^-12 M, listed as ACTH(17-24)).

“SYSMEAAAAGKPVGKKRRPVKVYP (synthetic adrenocorticotropin hormone (ACTH) analog)”: the “MC2R activation relative to full-length ACTH” value in the assay with MC2R [2] is listed as “No activity”.

As for “SYSMEHARWGKPVGKKRRPVKVYP (synthetic adrenocorticotropin hormone (ACTH) analog)”, the “MC2R activation relative to full-length ACTH” value in the assay with MC2R [2] is on record as “No activity”.

On to “SYSMEHFAWGKPVGKKRRPVKVYP (synthetic adrenocorticotropin hormone (ACTH) analog)”, for which the “MC2R activation relative to full-length ACTH” value in the assay with MC2R [2] is reported as “No activity”.

With “SYSMEHFRWAAAAAKKRRPVKVYP (synthetic adrenocorticotropin hormone (ACTH) analog)”, the “MC2R activation relative to full-length ACTH: fold drop in activity” value with MC2R [2] is reported as 400 fold drop.

As for “SYSMEHFRWGKPVGAAAAAVKVYP (synthetic adrenocorticotropin hormone (ACTH) analog)”, the “MC2R activation relative to full-length ACTH” value with MC2R [2] is given as “No activity”.

For the substance “SYSMEHFRWGKPVGAARRPVKVYP (synthetic adrenocorticotropin hormone (ACTH) analog)”, the “MC2R activation relative to full-length ACTH: fold drop in activity” value with MC2R [2] came to 100 fold drop.

Turning to “SYSMEHFRWGKPVGKKAAAVKVYP (synthetic adrenocorticotropin hormone (ACTH) analog)”, the “MC2R activation relative to full-length ACTH: fold drop in activity” value with MC2R [2] stood at 100 fold drop.

As for “SYSMEHFRWGKPVGKKRRPVKVYP [reference compound]”, in the assay with MC2R [2] (10^-6 to 10^-12 M, listed as ACTH(1-24)), the “activation of hMC2R (cAMP production) by analog incubated alone” value is reported as “robust standard curve; also recorded: produced cAMP in a dose dependent manner”. In addition, the “MC2R activation relative to full-length ACTH” value with MC2R [2] is listed as “Full activity”. Besides, in the assay with MC2R [4] (listed as ACTH(1-24)), the “activation of MC2R (previous studies)” value is on record as “as potent an activator of MC2R as ACTH(1-39); also recorded: as fully as full-length human ACTH”.

Turning to “SYSMEHFRWGKPVGKRAAWVKVYP (synthetic adrenocorticotropin hormone (ACTH) analog AT814 with modified KKRRP motif) [reference compound]”, the “inhibition … of hMC2R” value in the assay with MC2R [1] (setting [5]) is reported as “competitive inhibitor; also recorded: completely inhibited”; with MC2R [1] (setting [6]) it was “ineffective; also recorded: no inhibitory effect”. The “activation of human MC4R (cAMP production)” value with human MC4R is “can activate; also recorded: stimulated the production of cAMP in a dose dependent manner”.
